Biological target: C-C chemokine receptor 5 (CCR5) (human, UniProt P51681 1-352)
Experiment: cell-based or functional assay

Chain of C-C chemokine receptor 5 (CCR5) (P51681 whole entry): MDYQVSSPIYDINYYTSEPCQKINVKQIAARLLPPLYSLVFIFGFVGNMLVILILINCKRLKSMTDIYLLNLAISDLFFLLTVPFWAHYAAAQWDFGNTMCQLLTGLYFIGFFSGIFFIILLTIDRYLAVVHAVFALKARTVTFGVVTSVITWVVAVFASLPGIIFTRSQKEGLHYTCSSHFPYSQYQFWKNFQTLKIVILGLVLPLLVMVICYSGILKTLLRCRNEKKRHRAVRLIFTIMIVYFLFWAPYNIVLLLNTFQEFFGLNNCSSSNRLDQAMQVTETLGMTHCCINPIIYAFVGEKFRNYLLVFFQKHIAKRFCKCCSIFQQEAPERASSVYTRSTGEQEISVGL

B1: Leronlimab (PRO 140) (antibody, human IgG4, kappa, V domains shown)
VH: EVQLVESGGGLVKPGGSLRLSCAASGYTFSNYWIGWVRQAPGKGLEWIGDIYPGGNYIRNNEKFKDKTTLSADTSKNTAYLQMNSLKTEDTAVYYCGSSFGSNYVFAWFTYWGQGTLVTVSS
VL: DIVMTQSPLSLPVTPGEPASISCRSSQRLLSSYGHTYLHWYLQKPGQSPQLLIYEVSNRFSGVPDRFSGSGSGTDFTLKISRVEAEDVGVYYCSQSTHVPLTFGQGTKVEIKR
inhibition of MIP-1α-induced calcium mobilization, IC50: 21.2 µg/mL | inhibition of MIP-1β-induced calcium mobilization, IC50: 39.6 µg/mL | inhibition of RANTES (CCL5)-induced calcium mobilization, IC50: 59.1 µg/mL

Reference: patent publication US11045546 (CYTODYN, dated 2021)
